T1: amphyphisin SH3 (AMPH_HUMAN), P49418
T1 chain: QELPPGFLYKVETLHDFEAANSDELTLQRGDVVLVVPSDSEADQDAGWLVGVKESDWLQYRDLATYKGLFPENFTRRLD

B1: Q13573 443-456 (peptide)
chain: MAQSIYRPSKNLDK
B2: Q9NW15 466-479 (peptide)
chain: MSRVFKRPFSEPSA
B3: Q14934 712-726 (peptide)
chain: MDFSPPRPPYPSYP
B4: Q9P0N2 51-64 (peptide)
chain: MDGFLSRPSRPLLQ
B5: Q96M26 524-538 (peptide)
chain: MEHSPQRPPRTEPT
B6: Q99743 799-812 (peptide)
chain: AQPQPLRPPRRVSS
B7: P08700 68-81 (peptide)
chain: MENNLRRPNLEAFN
B8: Q14209 197-210 (peptide)
chain: MFEDPTRPGKQQQL
B9: O94901 782-795 (peptide)
chain: MFQALKRPDDTAFQ
B10: Q96HR8 430-444 (peptide)
chain: MHNFPLRPPPPPPP
B11: Q9Y6E0 364-377 (peptide)
chain: MKDIPKRPFSQSLS
B12: Q9Y4E6 583-597 (peptide)
chain: MKKGPTRPPRPSTP
B13: Q02246 907-921 (peptide)
chain: MKPPPRRPPGNISW
B14: Q9UPS6 353-366 (peptide)
chain: MKRKPGRPRRSPPS
B15: Q08050 1-14 (peptide)
chain: MKTSPRRPLILKRR
B16: Q9GZZ2 864-877 (peptide)
chain: MKVHIKRPEMTSSS
B17: Q9Y2K2 611-624 (peptide)
chain: AQQLLKRPRGPSPL
B18: Q13808 54-67 (peptide)
chain: MLAMPRRPDPVFLN
B19: O00445 360-373 (peptide)
chain: MLANPRRPIAQWHS
B20: P21579 394-407 (peptide)
chain: MLANPRRPIAQWHT
B21: Q13423 581-594 (peptide)
chain: MLDMFKRPTDPPEY
B22: Q9NPP7 87-101 (peptide)
chain: MLLLPPRPPHPRSS
B23: O15399 995-1009 (peptide)
chain: AAQPPQKPPASYFA
B24: Q92876 108-121 (peptide)
chain: MLLRLARPAKLSEL
B25: O75833 1-14 (peptide)
chain: MLLRPRRPPPLAPP
B26: O94947 263-276 (peptide)
chain: MLLSPRRPTVEKRA
B27: O95600 103-116 (peptide)
chain: MLQAPIRPPKPQSS
B28: Q15428 237-251 (peptide)
chain: MNGLPPRPPLPESL
B29: Q96GZ7 12-25 (peptide)
chain: ARAALRRPLSGQAL
B30: P10747 192-205 (peptide)
chain: MNMTPRRPGPTRKH
B31: Q96DH7 35-48 (peptide)
chain: MQFSIRRPKLPSSE
B32: P18146 321-334 (peptide)
chain: MRKYPNRPSKTPPH
B33: P25705 324-337 (peptide)
chain: MSLLLRRPPGREAY
B34: Q99654 1-14 (peptide)
chain: MSSAPRRPAKGADS
B35: Q9P2M8 940-953 (peptide)
chain: MSTPLRRPSASETV
B36: Q13873 1-14 (peptide)
chain: MTSSLQRPWRVPWL
B37: P27708 1830-1843 (peptide)
chain: MTTTPERPRRGIPG
B38: Q96IB4 40-53 (peptide)
chain: MTVAIRRPGVPGAP
B39: Q9BRN8 20-34 (peptide)
chain: MVPGPARPPGSSWD
B40: P53539 138-151 (peptide)
chain: ARARPRRPREETLT
B41: Q9Y6A1 1-14 (peptide)
chain: MWGFLKRPVVVTAD
B42: P19099 413-426 (peptide)
chain: NAALFPRPERYNPQ

How the values were obtained:
[1] = target: endophilin SH3 (SH3G2_HUMAN), Q99962; experiment: SPOT array
[2] = target: T1, amphyphisin SH3 (AMPH_HUMAN), P49418; experiment: SPOT array

| Binder | normalised SPOT signal, Boehringer light units (BLU); mean over the file's lines of this peptide [1] | normalised SPOT signal, Boehringer light units (BLU); mean over the file's lines of this peptide [2] |
| --- | --- | --- |
| B1 | 185 | 153 |
| B2 | 627 | 88.8 |
| B3 | 978 | 18 |
| B4 | 236 | 295 |
| B5 | 1100 | 14500 |
| B6 | 1160 | 25300 |
| B7 | 14.8 | 27.1 |
| B8 | 120 | 18.6 |
| B9 | 54.5 | 38.2 |
| B10 | 213 | 68.7 |
| B11 | 2820 | 99.5 |
| B12 | 17300 | 10700 |
| B13 | 1910 | 1010 |
| B14 | 989 | 138 |
| B15 | 2850 | 150 |
| B16 | 163 | 27.3 |
| B17 | 75.7 | 55.3 |
| B18 | 214 | 57.7 |
| B19 | 551 | 33.7 |
| B20 | 122 | 108 |
| B21 | 56.5 | 34.5 |

| Binder | normalised SPOT signal, Boehringer light units (BLU); mean over the file's lines of this peptide [1] | normalised SPOT signal, Boehringer light units (BLU); mean over the file's lines of this peptide [2] |
| --- | --- | --- |
| B22 | 11500 | 3000 |
| B23 | 125 | 45.4 |
| B24 | 342 | 346 |
| B25 | 5190 | 2650 |
| B26 | 8300 | 344 |
| B27 | 2740 | 1050 |
| B28 | 9000 | 58.1 |
| B29 | 85.3 | 87.1 |
| B30 | 2530 | 76.1 |
| B31 | 532 | 118 |
| B32 | 1570 | 222 |
| B33 | 63.4 | 15.9 |
| B34 | 222 | 178 |
| B35 | 228 | 18.3 |
| B36 | 227 | 506 |
| B37 | 2030 | 9560 |
| B38 | 80.3 | 55.2 |
| B39 | 33.6 | 45.4 |
| B40 | 181 | 42.3 |
| B41 | 121 | 37.8 |
| B42 | 63.6 | 699 |

From publication PMC314469, “Protein Interaction Networks by Proteome Peptide Scanning” (PLoS Biology, 2004)
